Molecular target: Streptococcus pyogenes Cas9 (Streptococcus pyogenes, UniProt Q99ZW2 1-1368)
Assay: native gel or EMSA

B1: AcrIIA4 (natural protein, Listeria monocytogenes prophage, UniProt A0A247D711 1-87, looked up)
chain: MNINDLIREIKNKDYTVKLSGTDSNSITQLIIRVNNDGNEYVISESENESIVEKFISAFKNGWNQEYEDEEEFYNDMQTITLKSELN
Kd: 78 nM
